B1: filgrastim (protein, chains of the INN, looked up)
chain: MTPLGPASSLPQSFLLKCLEQVRKIQGDGAALQEKLCATYKLCHPEELVLLGHSLGIPWAPLSSCPSQALQLAGCLSQLHSGLFLYQGLLQALEGISPELGPTLDTLQLDVADFATTIWQQMEELGMAPALQPTQGAMPAFASAFQRRAGGVLVASHLQSFLEVSYRVLRHLAQP
For B1, the incidence of leukemia (influence of filgrastim) was “not influenced” and the granulocyte toxicity (use of filgrastim in the dose dense regimens) was “statistically significant decrease”.
